T1: CD138 on the surface of U266 cells (CD138+ human lymphoblastic myeloma cell line) (human, UniProt P18827 23-310)
T1 construct: whole, on cells; also called cell surface CD138; membrane CD138
T1 sequence (looked up): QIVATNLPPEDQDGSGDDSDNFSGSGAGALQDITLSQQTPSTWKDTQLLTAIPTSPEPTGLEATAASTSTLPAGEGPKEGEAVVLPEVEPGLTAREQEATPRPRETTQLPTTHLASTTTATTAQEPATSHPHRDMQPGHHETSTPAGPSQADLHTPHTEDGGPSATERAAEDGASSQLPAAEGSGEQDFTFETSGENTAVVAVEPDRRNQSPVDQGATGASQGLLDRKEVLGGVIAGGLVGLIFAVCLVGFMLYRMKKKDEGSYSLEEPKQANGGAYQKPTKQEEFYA

T2: Biotinylated recombinant soluble human CD138 extracellular domain (Sino Biological, Cat. 11429-H08H) (human, UniProt P18827 18-251, biotin (EZ-Link NHS-SS-PEG4 Biotin) on primary amino groups of lysines, protein:biotin 1:20)
T2 construct: range 18-251; Bought reagent; The limits are printed as approximate; also called biotinylated CD138; recombinant CD138
T2 sequence (looked up): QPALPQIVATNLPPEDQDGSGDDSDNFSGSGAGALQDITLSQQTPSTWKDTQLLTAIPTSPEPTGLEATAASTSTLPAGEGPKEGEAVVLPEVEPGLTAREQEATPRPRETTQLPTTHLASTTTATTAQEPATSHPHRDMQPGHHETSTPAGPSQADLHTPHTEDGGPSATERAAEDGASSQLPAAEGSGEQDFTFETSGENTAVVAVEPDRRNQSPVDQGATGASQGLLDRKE


Assays:
[1] = biological target: T1, CD138 on the surface of U266 cells …; assay: flow cytometry on U266 cells at pH 6.0, MFI against antibody concentration (0.01-10 ug/mL)
Experimental: Antibody binding to membrane CD138 was evaluated using the CD138+ human lymphoblastic myeloma cell line (U266) and quantified by flow cytometry. Cells were grown in RPMI1640 with 10% FBS. […] Cells were washed (1X) with same pH-matched buffer (and as throughout the experiment) followed by incubation with secondary (detection) goat anti-human Fab( Jackson Immuno Research) conjugated with Alexa Fluor-488 for 30 minutes also at either pH 6.0 or 7.4. Cells were washed once more and resuspended in matching pH buffer and evaluated by flow cytometry. Antibody cell binding was reported as geometric mean fluorescence intensity (MFI). Dose-response curves were generated using GraphPad Prism. Binding data were plotted using nonlinear regression analysis and a 4-parameter curve fit.

[2] = biological target: T2, Biotinylated recombinant soluble human …; assay: BLI (Octet): biotinylated CD138 (10 nM) on streptavidin tips, antibody 12.5 and 25 nM, pH 6.0, 1:1 fit
Experimental: Binding experiments were carried using assay buffer comprised of 100 mM Sodium Phosphate+ 150 mM NaCl + 0.02% Tween-20 and adjusted to target pH of 7.4, 6.0, 6.4, or 6 using appropriate ratios of monobasic and dibasic sodium phosphate buffer. 25 nM biotinylated CD138 was loaded onto Streptavidin capture Octet (SA) tips for 120 seconds (antigen loading step) followed by antibody binding for associated for 300 seconds (association step), and subsequently dissociation for 300 seconds (dissociation step). All steps were carried out at the respective target pH using the corresponding pH adjusted buffers.
Modifications to this protocol included lowering the loading concentration of biotinylated CD138 from 25 nM to 10 nM and varying the test antibody concentrations ranging from 25 nM down to 0.8 nM (as 2-fold dilutions). The rationale for doing so was to potentially reduce any target avidity effects while also looking at the analyte concentration dependency.
Data were analyzed for purposes of calculating approximate kinetic binding parameters and apparent binding affinities based on these rates. Data was fit assuming a 1:1 binding model.

Row | EC50 (read off the curve) [1] | Kd [2] | koff [2] | kon [2] | Binder
1 | ~0.2 µg/mL |  |  |  | Ab175 (antibody, V domains shown, also called mAb Ab175) VH: EVQLVQSGAEVKKPGASVKVSCKASGYSFSSYYMHWVRQAPGQGLEWMGTIHPSDSTTNYNQKFQGRVTMTVDTSTRTAYMELSSLRSEDTAVYYCADFLYWGQGTTVTVSS VL: DIVMTQTPLSLSVTPGQPASISCKSSKSLLYKDGHTYLNWFLQKPGQSPQLLIYVVSTRASGVPDRFSGSGSGTDFTLKISRVEAEDVGVYYCQQLVEYPYTFGQGTKLEIK
2 |  | 4.6 nM | 0.0034 s⁻¹ | 720000 M⁻¹ s⁻¹ | Antibody Ab30 (antibody, V domains shown) VH: EVQLVQSGAEVKKPGASVKVSCKASGYSFSSYYMHWVRQAPGQGLEWMGTIHPEDSTTNYNQKFQGRVTMTVDTSTRTAYMELSSLRSEDTAVYYCADFVYWGQGTTVTVSS VL: DIVMTQTPLSLSVTPGQPASISCKSSKSLLYKDGKTYLNWFLQKPGQSPQLLIYVVSTRASGVPDRFSGSGSGTDFTLKISRVEAEDVGVYYCQQLVEYPYTFGQGTKLEIK
3 | ~1 µg/mL | 6.4 nM | 0.0036 s⁻¹ | 560000 M⁻¹ s⁻¹ | Antibody Ab32 (antibody, V domains shown) VH: EVQLVQSGAEVKKPGASVKVSCKASGYSFSSYYMHWVRQAPGQGLEWMGTIHPSDSTTNYNQKFQGRVTMTVDTSTRTAYMELSSLRSEDTAVYYCADFLYWGQGTTVTVSS VL: DIVMTQTPLSLSVTPGQPASISCKSSKSLLYKDGKTYLNWFLQKPGQSPQLLIYVVSTRASGVPDRFSGSGSGTDFTLKISRVEAEDVGVYYCQQLVEYPYTFGQGTKLEIK

From US20230348614A1 (VISTERRA, published 2023)
